{
  "source": "patent US20130295021A1",
  "about": "(published 2013)",
  "key": {"[1]": {"target": "T1, recombinant human tau, isoform Tau-F of 441aa (hTau40) (human, UniProt P10636 1-758)", "T1 construct": "Bought from rPeptide (Bogart, USA); also called full-length tau; rTau", "T1 sequence (P10636 other isoform, or with tags, fused parts or gaps limits assumed)": "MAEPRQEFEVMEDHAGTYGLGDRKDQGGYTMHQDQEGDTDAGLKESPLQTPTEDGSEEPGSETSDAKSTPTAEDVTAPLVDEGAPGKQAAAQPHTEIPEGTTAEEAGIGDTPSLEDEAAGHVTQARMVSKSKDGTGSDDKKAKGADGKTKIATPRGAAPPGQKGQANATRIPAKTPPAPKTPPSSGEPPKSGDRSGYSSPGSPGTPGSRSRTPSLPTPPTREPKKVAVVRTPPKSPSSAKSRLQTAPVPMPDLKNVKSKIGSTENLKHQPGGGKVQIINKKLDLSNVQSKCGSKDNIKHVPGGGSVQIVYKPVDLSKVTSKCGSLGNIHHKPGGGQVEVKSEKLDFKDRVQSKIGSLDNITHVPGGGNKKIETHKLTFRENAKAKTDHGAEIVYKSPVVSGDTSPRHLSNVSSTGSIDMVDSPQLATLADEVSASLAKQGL", "test": "ELISA on recombinant tau (FIG. 15)"}, "[2]": {"target": "T1, recombinant human tau, isoform Tau-F of …", "test": "ELISA on recombinant tau"}, "[3]": {"target": "T1, recombinant human tau, isoform Tau-F of …", "test": "direct ELISA, hTau40 coated at 1 ug/ml; hTau40 coated at 1 ug/ml", "experimental": "(§1) 96 well microplates (Costar, Corning, USA) were coated with recombinant Tau protein (hTau40, rPeptide, Bogart, USA) diluted to a concentration of 1 μg/ml in carbonate ELISA coating buffer (50 mM, pH9.6) at 4° C. over night. Non-specific binding sites were blocked for 2 hr at RT with PBS containing 2% BSA (Sigma, Buchs, Switzerland) and 0.5% Tween20. […] EC₅₀ values were estimated by a non-linear regression using GraphPad Prism software (San Diego, USA).\n(§2) ELISA plates were coated with recombinant human tau (hTau40, 1 ug/ml), PHFTau (1:100) and control preparation (1:100), and incubated with varying antibody concentrations."}, "[4]": {"target": "T2, bovine serum albumin (BSA) (UniProt P02769 25-607)", "T2 construct": "Control antigen", "T2 sequence (P02769 25-607 limits assumed)": "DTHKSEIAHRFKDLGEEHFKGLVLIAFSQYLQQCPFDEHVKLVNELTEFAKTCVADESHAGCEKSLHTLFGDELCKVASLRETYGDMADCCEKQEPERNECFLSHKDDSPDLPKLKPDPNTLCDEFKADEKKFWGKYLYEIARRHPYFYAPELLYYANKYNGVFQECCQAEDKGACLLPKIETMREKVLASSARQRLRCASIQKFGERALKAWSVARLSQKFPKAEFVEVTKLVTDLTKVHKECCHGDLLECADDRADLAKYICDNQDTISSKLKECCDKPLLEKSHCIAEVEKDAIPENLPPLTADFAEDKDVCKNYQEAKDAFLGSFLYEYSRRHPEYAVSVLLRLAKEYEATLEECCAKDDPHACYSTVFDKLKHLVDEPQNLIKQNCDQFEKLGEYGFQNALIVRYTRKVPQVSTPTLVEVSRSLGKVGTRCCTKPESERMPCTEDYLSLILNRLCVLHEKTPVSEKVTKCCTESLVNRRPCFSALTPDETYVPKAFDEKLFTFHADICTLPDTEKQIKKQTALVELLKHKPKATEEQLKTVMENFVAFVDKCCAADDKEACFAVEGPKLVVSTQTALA", "test": "direct ELISA, plates coated with BSA", "experimental": "To validate tau as a recognized target of isolated antibodies direct ELISA assays were performed as described above. […] No binding is observed to BSA (FIG. 10)."}, "[5]": {"target": "T3, His-tagged tau domain III (AA 235-373 of hTau40) (human, UniProt P10636 552-690)", "T3 construct": "Expressed in E. coli BL21 (DE3) and purified on Ni-NTA", "T3 sequence (P10636 other isoform, or with tags, fused parts or gaps)": "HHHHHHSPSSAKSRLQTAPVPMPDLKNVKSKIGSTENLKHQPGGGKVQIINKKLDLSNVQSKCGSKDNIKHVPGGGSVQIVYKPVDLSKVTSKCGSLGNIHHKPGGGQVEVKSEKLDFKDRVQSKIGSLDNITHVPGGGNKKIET", "test": "Western blot", "experimental": "(§3) DNA fragments, synthesized using GeneArt® (Invitrogen), which encode each Tau domain with 6×His tagged at the N-terminus were cloned into the pRSET-A expression vector (Invitrogen), were transfected into E. Coli BL21 (DE3) (New England Biolabs). The expressions of the His-tagged Tau domains were induced by 0.5 mM IPTG for six hours before bacteria were lysed with lysozyme with sonication. The lysate was boiled for five minutes before being further purified with Ni-NTA Superflow Columns (Qiagen). The eluted His-tagged Tau domains were coated on ELISA plates or loaded on polyacrylamide gel for Western Blot. These sequentially overlapping tau domain polypeptides cover the full length of hTau40 (FIG. 13A)."}, "[6]": {"target": "T4, His-tagged tau domain IV (AA 355-441 of hTau40) (human, UniProt P10636 672-758)", "T4 construct": "Expressed in E. coli BL21 (DE3) and purified on Ni-NTA", "T4 sequence (P10636 other isoform, or with tags, fused parts or gaps)": "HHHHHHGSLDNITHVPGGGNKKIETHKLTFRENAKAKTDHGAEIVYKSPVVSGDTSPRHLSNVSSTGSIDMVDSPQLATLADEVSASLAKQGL", "test": "Western blot", "experimental": "as §3"}, "[7]": {"target": "T5, His-tagged tau domain II (AA 136-258 of hTau40) (human, UniProt P10636 387-575)", "T5 construct": "Expressed in E. coli BL21 (DE3) and purified on Ni-NTA", "T5 sequence (P10636 other isoform, or with tags, fused parts or gaps)": "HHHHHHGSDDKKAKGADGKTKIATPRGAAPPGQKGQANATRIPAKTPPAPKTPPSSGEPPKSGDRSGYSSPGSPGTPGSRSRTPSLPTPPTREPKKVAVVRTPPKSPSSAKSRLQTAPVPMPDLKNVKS", "test": "Western blot", "experimental": "as §3"}, "[8]": {"target": "T6, PHFTau, paired helical filaments containing pathologically phosphorylated tau filaments extracted from AD … (human, UniProt P10636-8 1-441, limits assumed, pathologically phosphorylated; sites not given)", "T6 construct": "Brain extract, aggregated and phosphorylated; also called pathologically modified tau isoforms", "T6 sequence (P10636 other isoform, or with tags, fused parts or gaps limits assumed)": "as the sequence (P10636 other isoform, or with tags, fused parts or gaps limits assumed) above", "test": "direct ELISA, PHFTau coated at 1:100; PHFTau coated at 1:100", "experimental": "as §2"}, "[9]": {"target": "T1, recombinant human tau, isoform Tau-F of …", "test": "direct ELISA, hTau40 coated at 1 µg/ml (legend of FIG. 2)", "experimental": "as §1\n(§4) The EC₅₀ values were estimated by a non-linear regression using GraphPad Prism software."}, "[10]": {"target": "T1, recombinant human tau, isoform Tau-F of …", "test": "direct ELISA, hTau40 coated at 1 µg/ml", "experimental": "as §1, §4"}, "[11]": {"target": "T7, peptide corresponding to amino acids 226-239 of human tau (226VAVVRpTPPKSPSSA239), cognate epitope of AT180 (human)", "T7 peptide": "VAVVR[pT]PPKSPSSA", "test": "direct ELISA on coated peptide"}, "[12]": {"target": "T8, peptide corresponding to amino acids 333-346 of hTau40 with an additional C-terminal cysteine (human)", "T8 peptide": "GGGQVEVKSEKLDFC", "test": "direct ELISA on coated peptide (legend of FIG. 5)"}, "[13]": {"target": "T1, recombinant human tau, isoform Tau-F of …", "test": "direct ELISA, hTau40 coated at 3 µg/ml (legend of FIG. 7)", "from_the_text": "as §4"}, "[14]": {"target": "T1, recombinant human tau, isoform Tau-F of …", "test": "direct ELISA, hTau40 coated at 3 µg/ml", "from_the_text": "as §4"}},
  "note": "Non-standard residues stand in square brackets, D forms with d. No end group written: not given here. pT = C[C@@H](OP(=O)(O)O)[C@H](N)C(=O)O",
  "data": [
    {"binder": "ch4E4(N30Q), mouse IgG2a/lambda (antibody, V domains shown, Produced in and purified from CHO cells; also called the modified antibody) VH: EVQLVESGGGLVQPGGSLKLSCAASGFNFQISAIHWVRQASGKGLEWVGRIRSKSHNYATLYAASLKGRFTLSRDDSRNTAYLQMSSLQTEDMAVYYCTVLSANYDTFDYWGQGTLVTVSS VL: SYELTQPPSVSVSPGQTARISCFGDTLPKQYTYWYQQKPGQAPVLVIYKDTERPSGIPERFSGSSSGTTVTLTISGVQAEDEADYYCLSADNSATWVFGGGTKVTVLG", "values": [
      {"measurement": "fold higher apparent binding affinity relative to the original, glycosylated antibody (ch4E4)", "setting": "[1]", "result": "~4", "unit": "fold"},
      {"measurement": "EC50 (read off the curve)", "setting": "[2]", "result": "~0.04", "unit": "µg/mL"}
    ]},
    {"binder": "chimeric 4E4 (ch4E4), mouse IgG2a/lambda (antibody, V domains shown, N-glycan on Asn-30 (fully occupied on CHO expression), also called original, glycosylated antibody) VH: EVQLVESGGGLVQPGGSLKLSCAASGFNFNISAIHWVRQASGKGLEWVGRIRSKSHNYATLYAASLKGRFTLSRDDSRNTAYLQMSSLQTEDMAVYYCTVLSANYDTFDYWGQGTLVTVSS VL: SYELTQPPSVSVSPGQTARISCFGDTLPKQYTYWYQQKPGQAPVLVIYKDTERPSGIPERFSGSSSGTTVTLTISGVQAEDEADYYCLSADNSATWVFGGGTKVTVLG", "values": [
      {"measurement": "EC50 (read off the curve)", "setting": "[2]", "result": "~0.2", "unit": "µg/mL"}
    ]},
    {"binder": "ch4E4(N30Q) mIgG1 Agly (antibody, V domains shown, also called ch4E4(N30Q) IgG 1-Agly; mouse chimeric aglycosylated variant of 4E4) VH: EVQLVESGGGLVQPGGSLKLSCAASGFNFQISAIHWVRQASGKGLEWVGRIRSKSHNYATLYAASLKGRFTLSRDDSRNTAYLQMSSLQTEDMAVYYCTVLSANYDTFDYWGQGTLVTVSS VL: SYELTQPPSVSVSPGQTARISCFGDTLPKQYTYWYQQKPGQAPVLVIYKDTERPSGIPERFSGSSSGTTVTLTISGVQAEDEADYYCLSADNSATWVFGGGTKVTVLG", "values": [
      {"measurement": "EC50 (read off the curve)", "setting": "[2]", "result": "~0.04", "unit": "µg/mL"}
    ]},
    {"binder": "recombinant human tau antibody NI-105.4A3 (antibody, human IgG1, V domains shown) VH: QVQLVESGGGAVQPGGSLRLSCAASGFTFSDYAMHWVRQAPGKGLQWVAVISYEGTYKYYADSVKGRFTISRDNSKNTLNLQMSSLRVEDTAVYFCVKARAFASGQRSTSTVPDYWGQGTLVTVSS VL: SYELTQPPSVSVSPGQTARITCSGDALPKKYAYWYQQKSGQAPVLVIYEDNKRPSGIPERFSGSSSGTVATLTISGAQVDDEADYYCYSTDISGDLRVFGGGTKLTVL", "values": [
      {"measurement": "EC50", "setting": "[3]", "result": 1.4, "unit": "nM"},
      {"measurement": "binding result", "setting": "[4]", "result": "no binding"},
      {"measurement": "binding result", "setting": "[5]", "result": "no binding"},
      {"measurement": "binding result", "setting": "[6]", "result": "no binding"},
      {"measurement": "binding result", "setting": "[7]", "result": "no binding"},
      {"measurement": "EC50", "setting": "[8]", "result": 1.2, "unit": "nM"}
    ]},
    {"binder": "recombinant human tau antibody NI-105.4E4 (antibody, V domains shown) VH: EVQLVESGGGLVQPGGSLKLSCAASGFNFNISAIHWVRQASGKGLEWVGRIRSKSHNYATLYAASLKGRFTLSRDDSRNTAYLQMSSLQTEDMAVYYCTVLSANYDTFDYWGQGTLVTVSS VL: SYELTQPPSVSVSPGQTARISCFGDTLPKQYTYWYQQKPGQAPVLVIYKDTERPSGIPERFSGSSSGTTVTLTISGVQAEDEADYYCLSADNSATWVFGGGTKVTVL", "values": [
      {"measurement": "EC50", "setting": "[9]", "result": 2, "unit": "nM"},
      {"measurement": "EC50", "setting": "[10]", "result": 2.4, "unit": "nM"},
      {"measurement": "binding result", "setting": "[11]", "result": "no binding"},
      {"measurement": "binding result", "setting": "[12]", "result": "binds"}
    ]},
    {"binder": "recombinant human tau antibody NI-105.24B2 (antibody, human IgG1, V domains shown) VH: QVQLVQSGAEVKKPGASVKVSCKASGYTFVNYIIHWVRQAPGQGLEWMGIINPNGGNTSYAEKFQARVTLTSDTSTSTVYMDLSSLTSEDTAVYYCAVLSPSNPWGQGTTVTVSS VL: SYELTQPPSVSVSPGQTAGITCSGDALPKQFVYWYQKKPGQAPVLLIYKDTERPSRIPERFSGSTSGTTVALTINGVQAEDEADYYCQSADRSGALWVFGGGTKLTVL", "values": [
      {"measurement": "EC50", "setting": "[13]", "result": 6, "unit": "nM"},
      {"measurement": "EC50", "setting": "[14]", "result": 6.6, "unit": "nM"}
    ]}
  ]
}
